Reference: patent publication US20220160843A1 (priority 2019, published 2022)

B1: GN108: Native lysin, GenBank YP_009288673.1, SEQ ID NO: 26 (protein)
chain: MILTKDGFSIIRNELFEGKLDQTQVDAINFIVEKATEYGLTYPEAAYLLATIYHETGLPSGYRTMQPIKEAGSDSYLRSKKYYPYIGYGYVQLTWEENYERIGKLIGIDLVKNPEKALEPLIAIQIAIKGMLNGWFTGVGFRRKRPVSKYNKQQYVAARNIINGKDKAELIAKYAIIFERALRSL
modifications: Acinetobacter phage phiAB6
B2: GN9: Native lysin, GenBank ECJ78460.1, SEQ ID NO: 21 (protein)
chain: MKNFNEIIEHVLKHEGGYVNDPKDLGGETKYGITKRFYPDLDIKNLTIEQATEIYKKDYWDKNKVESLPQNLWHIYFDMCVNMGKRTAVKVLQRAAVNRGRDIEVDGGLGPATIGALKGVELDRVRAFRVKYYVDLITARPEQEKFYLGWFRRATEV
modifications: Marine metagenome
B3: GN105: Native lysin, GenBank WP_016046696.1, SEQ ID NO: 25 (protein, listed as Pseudomonas aeruginosa)
chain: MAVVSEKTAGGRNVLAFLDMLAWSEGTSTIRGSDNGYNVVVGGGLFNGYADHPRLKVYLPRYKVYSTAAGRYQLLSRYWDAYRESLALKGGFTPSNQDLVALQQIKERRSLADIQAGRLADAVQKCSNIWASLPGAGYGQREHSLDDLTAHYLAAGGVLS
B4: GN3: Native lysin, WP_012273008.1/Lysozyme, SEQ ID NO: 2 (protein, listed as Pseudomonas putida)
chain: MRTSQRGLSLIKSFEGLRLQAYQDSVGVWTIGYGTTRGVKAGMKISKDQAERMLLNDVQRFEPEVERLIKVPLNQDQWDALMSFTYNLGAANLESSTLRRLLNAGNYAAAAEQFPRWNKAGGQVLAGLTRRRAAERELFLGAA
B5: GN13: Native lysin, GenBank YP_00638255.1, SEQ ID NO: 23 (protein)
chain: MSDKRVEITGNVSGFFESGGRGVKTVSTGKGDNGGVSYGKHQLASNNGSMALFLESPFGAPYRAQFAGLKPGTAAFTSVYNKIANETPTAFERDQFQYIAASHYDPQAAKLKAEGINVDDRHVAVRECVFSVAVQYGRNTSIIIKALGSNFRGSDKDFIEKVQDYRGATVNTYFKSSSQQTRDSVKNRSQQEKQMLLKLLNS
modifications: Pseudomonas phage Lu11
B6: GN10: Native lysin, GenBank YP_002600773.1, SEQ ID NO: 22 (protein)
chain: MSKQGGVKVAQAVAALSSPGLKIDGIVGKATRAAVSSMPSSQKAATDKILQSAGIGSLDSLLAEPAAATSDTFREVVLAVAREARKRGLNPAFYVAHIALETGWGRSVPKLPDGRSSYNYAGLKYAAVKTQVKGKTETNTLEYIKSLPKTVRDSFAVFASAGDFSRVYFWYLLDSPSAYRYPGLKNAKTAQEFGDILQKGGYATDPAYAAKVASIASTAVARYGSDVSSVA
modifications: Pseudomonas phage phi2954
B7: GN17: Native lysin, GenBank ACD38663.1, SEQ ID NO: 24 (protein, listed as Pseudomonas aeruginosa)
chain: MTLRYGDRSQEVRQLQRRLNTWAGANLYEDGHFGAATEDAVRAFQRSHGLVADGIAGPKTLAALGGADCSHLLQNADLVAAATRLGLPLATIYAVNQVESNGQGFLGNGKPAILFERHIMYRRLAAHDQVTADQLAAQFPALVNPRPGGYAGGTAEHQRLANARQIDDTAALESASWGAFQIMGFHWQRLGYISVQAFAEAMGRSESAQFEAFVRFIDTDPALHKALKARKWADFARLYNGPDYKRNLYDNKLARAYEQHANCAEASA

test system: carbapenem-resistant clinical strain, WC-452; assay: Checkerboard assay to examine synergy with antibiotics in CAA/HuS; assay type: cell-based, P. aeruginosa; conditions: not given
Procedure: Fractional inhibitor concentration index (FICI) values were determined for all combinations; values of <0.5 indicate synergy.
The checkerboard assays is based on a modification of the CLSI method for MIC determination by broth microdilution (26, 29). Checkerboards were constructed by first preparing columns of a 96-well polypropylene microtiter plate, in which each well had the same amount of antibiotic diluted 2-fold along the horizontal axis. […] Summation fractional inhibitory concentrations (ΣFICs) were calculated for each drug and the minimum ΣFIC value (ΣFICmin) was used to determine synergy. ΣFICs were calculated as follows: ΣFIC=FIC A+FIC B, where FIC A is the MIC of each antibiotic in the combination/MIC of each antibiotic alone, and FIC B is the MIC of each GN lysin in the combination/MIC of each GN lysin alone. The combination is considered synergistic when the ΣFIC is ≤0.5, strongly additive when the ΣFIC is >0.5 to <1, additive with the ΣFIC is 1−<2, and antagonistic when the ΣFIC is ≥2.

Row | Molecule | synergy with antibiotics in the checkerboard assay
1 | B1 | synergize with a range of antibiotics

same assay, conditions: lysin + amikacin

Row | Molecule | FICI, Amikacin
2 | B1 | 0.156

same assay, conditions: lysin + azithromycin

Row | Molecule | FICI, Azithromycin
3 | B1 | 0.060

same assay, conditions: lysin + aztreonam

Row | Molecule | FICI, Aztreonam
4 | B1 | 0.250

same assay, conditions: lysin + ciprofloxacin

Row | Molecule | FICI, Ciprofloxacin
5 | B1 | 0.281

same assay, conditions: lysin + colistin

Row | Molecule | FICI, Colistin
6 | B1 | 0.133

same assay, conditions: lysin + fosfomycin

Row | Molecule | FICI, Fosfomycin
7 | B1 | 0.188

same assay, conditions: lysin + gentamicin

Row | Molecule | FICI, Gentamicin
8 | B1 | 0.188

same assay, conditions: lysin + imipenem

Row | Molecule | FICI, Imipenem
9 | B1 | 0.039

same assay, conditions: lysin + meropenem

Row | Molecule | FICI, Meropenem
10 | B1 | 0.250

same assay, conditions: lysin + piperacillin

Row | Molecule | FICI, Piperacillin
11 | B1 | 0.531

same assay, conditions: lysin + rifampicin

Row | Molecule | FICI, Rifampicin
12 | B1 | 0.125

same assay, conditions: lysin + tobramycin

Row | Molecule | FICI, Tobramycin
13 | B1 | 0.188

test system: P. aeruginosa strain ATCC 17647; assay: Minimal Biofilm Eradicating Concentration (MBEC), Calgary Biofilm Device; assay type: cell-based, Pseudomonas aeruginosa; conditions: 24 h biofilm, 24 h treatment; minimum concentration removing >95% of biofilm biomass (crystal violet)
Description: All samples were examined in triplicate.

Row | Molecule | MBEC
14 | B2 | 0.125 µg/mL
15 | B3 | 4 µg/mL
16 | B4 | 0.25 µg/mL
17 | B1 | 0.125 µg/mL
18 | B5 | 0.125 µg/mL
19 | B6 | 0.5 µg/mL
20 | B7 | 0.125 µg/mL

test system: P. aeruginosa; assay: Minimal inhibitory concentration (MIC), modified CLSI broth microdilution in CAA or CAA/HuS; assay type: cell-based, Pseudomonas aeruginosa; conditions: CAA media

Row | Molecule | MIC (μg/mL) in CAA
21 | B2 | 8 µg/mL
22 | B3 | >128 µg/mL
23 | B4 | 16 µg/mL
24 | B1 | 8 µg/mL
25 | B5 | 8 µg/mL
26 | B6 | 8 µg/mL
27 | B7 | 32 µg/mL

same assay, conditions: CAA supplemented with 25% human serum

Row | Molecule | MIC (μg/mL in CAA/HuS) | MIC value in CAA/HuS
28 | B2 | 2 µg/mL | 
29 | B3 | 32 µg/mL | 
30 | B4 | 16 µg/mL | 16 µg/mL
31 | B1 | 8 µg/mL | 
32 | B5 | >128 µg/mL | 
33 | B6 | 16 µg/mL | 
34 | B7 | 16 µg/mL | 

test system: P. aeruginosa; assay: Time-kill assay of GN lysin activity; assay type: cell-based, Pseudomonas aeruginosa; conditions: 3-hour timepoint; 10 μg/mL; in either CAA/HuS or HEPES buffer
Procedure: All treatments were incubated at 37° C. with aeration.

Row | Molecule | bactericidal activity in the time-kill assay format
35 | B4 | bactericidal activity
36 | B1 | bactericidal activity
37 | B7 | bactericidal activity

same assay, conditions: CAA/HuS; lysin 10 μg/mL; T = 0 7.8; buffer control 7.2; limit of detection 3.7; ‡ indicates bactericidal activity

Row | Molecule | Log10 CFU/mL T = 3 hr
38 | B2 | 7.3 Log10 CFU/mL
39 | B3 | 6.3 Log10 CFU/mL
40 | B4 | <3.7‡ Log10 CFU/mL
41 | B1 | <3.7‡ Log10 CFU/mL
42 | B6 | 7.4 Log10 CFU/mL
43 | B7 | 4.2‡ Log10 CFU/mL

same assay, conditions: CAA/HuS; lysin 10 μg/mL; T = 0 7.8; buffer control 7.7

Row | Molecule | Log10 CFU/mL T = l hr
44 | B2 | 6.8 Log10 CFU/mL
45 | B3 | 7.0 Log10 CFU/mL
46 | B4 | 5.8 Log10 CFU/mL
47 | B1 | 5.7 Log10 CFU/mL
48 | B6 | 7.4 Log10 CFU/mL
49 | B7 | 6.4 Log10 CFU/mL

same assay, conditions: HEPES buffer; lysin 10 μg/mL; T = 0 7.8; buffer control 7.2; limit of detection 3.7; ‡ indicates bactericidal activity

Row | Molecule | Log10 CFU/mL T = 3 hr
50 | B2 | 5.7 Log10 CFU/mL
51 | B3 | <3.7 Log10 CFU/mL
52 | B4 | <3.7‡ Log10 CFU/mL
53 | B1 | <3.7‡ Log10 CFU/mL
54 | B6 | <3.7‡ Log10 CFU/mL
55 | B7 | <3.7‡ Log10 CFU/mL

same assay, conditions: HEPES buffer; lysin 10 μg/mL; T = 0 7.8; buffer control 7.7; ‡ indicates bactericidal activity

Row | Molecule | Log10 CFU/mL T = l hr
56 | B2 | 6.7 Log10 CFU/mL
57 | B3 | 6.6 Log10 CFU/mL
58 | B4 | <3.7‡ Log10 CFU/mL
59 | B1 | 6.4 Log10 CFU/mL
60 | B6 | 5.7 Log10 CFU/mL
61 | B7 | 5.4 Log10 CFU/mL

test system: human erythrocytes; assay: not given; assay type: cell-based; conditions: not given
Procedure: The hemolytic activity of the GN lysins was measured as the amount of hemoglobin released by the lysis of human erythrocytes (30). Briefly, 3 ml of fresh human blood cells (hRBCs) obtained from pooled healthy donors (BioreclamationIVT) in a polycarbonate tube containing heparin was centrifuged at 1,000×g for 5 min at 4° C. The erythrocytes obtained were washed three times with phosphate-buffered saline (PBS) solution (pH 7.2) and resuspended in […]. […] Intact erythrocytes were pelleted by centrifugation at 1,000×g for 5 min at 4° C., and the supernatant was transferred to a new 96-well plate. The release of hemoglobin was monitored by measuring the absorbance at 570 nm.

Row | Molecule | hemolytic activity
62 | B2 | no hemolytic activity whatsoever
63 | B3 | no hemolytic activity whatsoever
64 | B4 | no hemolytic activity whatsoever
65 | B1 | no hemolytic activity whatsoever
66 | B5 | no hemolytic activity whatsoever
67 | B6 | no hemolytic activity whatsoever
68 | B7 | no hemolytic activity whatsoever
